From article PMC4240464 (The Febs Journal, 2013) come the findings set out here.

To fix the notation:
T1: Evasin-4 (untagged recombinant) (Rhipicephalus sanguineus, UniProt P0C8E9 24-127, appears to be highly glycosylated (six putative N-glycosylation sites))
T1 sequence: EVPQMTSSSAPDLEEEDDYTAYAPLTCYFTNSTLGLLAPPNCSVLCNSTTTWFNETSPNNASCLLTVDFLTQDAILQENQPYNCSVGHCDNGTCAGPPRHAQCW

T2: CCL21 (human, UniProt O00585 24-134)
T2 sequence: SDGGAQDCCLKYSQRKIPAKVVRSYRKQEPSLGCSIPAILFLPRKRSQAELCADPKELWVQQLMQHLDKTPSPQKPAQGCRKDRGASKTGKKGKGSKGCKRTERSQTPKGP

T3: CCL25 (human, UniProt O15444 24-150)
T3 sequence: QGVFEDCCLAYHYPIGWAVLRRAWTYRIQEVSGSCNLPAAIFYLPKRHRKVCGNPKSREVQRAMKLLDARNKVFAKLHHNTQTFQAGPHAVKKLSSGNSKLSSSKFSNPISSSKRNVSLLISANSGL

B1: CCL11 (ligand)
chain: not shown
B2: CCL5 E26A (ligand)
chain: SPYSSDTTPCCFAYIARPLPRAHIKAYFYTSGKCSNPAVVFVTRKNRQVCANPEKKWVREYINSLEMS
B3: CCL23 (ligand)
chain: RVTKDAETEFMMSKLPLENPVLLDRFHATSADCCISYTPRSIPCSLLESYFETNSECSKPGVIFLTKKGRRFCANPSDKQVQVCMRMLKLDTRIKTRKN
B4: CCL15 (ligand)
chain: QFTNDAETELMMSKLPLENPVVLNSFHFAADCCTSYISQSIPCSLMKSYFETSSECSKPGVIFLTKKGRQVCAKPSGPGVQDCMKKLKPYSI
B5: CCL3 (ligand)
chain: SLAADTPTACCFSYTSRQIPQNFIADYFETSSQCSKPGVIFLTKRSRQVCADPSEEWVQKYVSDLELSA
B6: CCL17 (ligand)
chain: ARGTNVGRECCLEYFKGAIPLRKLKTWYQTSEDCSRDAIVFVTVQGRAICSDPNNKRVKNAVKYLQSLERS
B7: CCL1 (ligand)
chain: KSMQVPFSRCCFSFAEQEIPLRAILCYRNTSSICSNEGLIFKLKRGKEACALDTVGWVQRHRKMLRHCPSKRK
B8: CCL24 (ligand)
chain: VVIPSPCCMFFVSKRIPENRVVSYQLSSRSTCLKAGVIFTTKKGQQFCGDPKQEWVQRYMKNLDAKQKKASPRARAVAVKGPVQRYPGNQTTC
B9: CCL8 (ligand)
chain: QPDSVSIPITCCFNVINRKIPIQRLESYTRITNIQCPKEAVIFKTKRGKEVCADPKERWVRDSMKHLDQIFQNLKP
B10: CCL18 (ligand)
chain: AQVGTNKELCCLVYTSWQIPQKFIVDYSETSPQCPKPGVILLTKRGRQICADPNKKWVQKYISDLKLNA
B11: CCL7 (ligand)
chain: not shown
B12: CCL26 (ligand)
chain: TRGSDISKTCCFQYSHKPLPWTWVRSYEFTSNSCSQRAVIFTTKRGKKVCTHPRKKWVQKYISLLKTPKQL
B13: 6His–Evasin-4 (natural protein)
chain: T1 sequence
B14: CCL16 (ligand)
chain: QPKVPEWVNTPSTCCLKYYEKVLPRRLVVGYRKALNCHLPAIIFVTKRNREVCTNPNDDWVQEYIKDPNLPLLPTRNLSTVKIITAKNGQPQLLNSQ
B15: CCL22 (ligand)
chain: GPYGANMEDSVCCRDYVRYRLPLRVVKHFYWTSDSCPRPGVVLLTFRDKEICADPRVPWVKMILNKLSQ
B16: CCL19 (ligand)
chain: GTNDAEDCCLSVTQKPIPGYIVRNFHYLLIKDGCRVPAVVFTTLRGRQLCAPPDQPWVERIIQRLQRTSAKMKRRSS
B17: CCL14 (ligand)
chain: TKTESSSRGPYHPSECCFTYTTYKIPRQRIMDYYETNSQCSKPGIVFITKRGHSVCTNPSDKWVQDYIKDMKEN

A word on the Kd: it is the concentration at which binding is half-saturated. Usually koff stands for the rate constant with which the complex falls apart. A higher koff goes with a short-lived complex. The term kon denotes a measure of how fast the partners come together. Low values mean slower complex formation, high ones faster complex formation.

The first assay concerns the target T1, Evasin-4 (untagged recombinant). The assay is described as follows: SPR.
In the case of B1, the Kd was 128000 pM.
Take B2: the Kd was 194000 pM.
On to B3, for which the Kd came to 14100 pM.
In the case of B4, the dissociation constant Kd was determined as 132000 pM.
Consider B5, for which the Kd is 33100 pM.
Same read-out and setting: the figure for B6 is 126000 pM.
Turning to B7, the Kd was 112000 pM.

Another assay deals with B13. Briefly: SPR. (Surface plasmon resonance follows binding to a sensor surface in real time, without labels.)
B8 displayed a Kd of 142000 pM.
On the same count and under the same terms, the figure for B1 is 69 pM.
Still for that read-out and setting: the figure for B9 is 220 pM.
The molecule B10 had a Kd of 198 pM.
B2 returned a Kd of 2 pM.
On the same count and under the same terms, the figure for B3 is 10800 pM.
The molecule B4 had a dissociation constant (Kd) of 199 pM.
Still for that read-out and setting: the figure for B5 is 393 pM.
Molecule B11 yielded a Kd of 45 pM.
The same measure, in the same setting: the figure for B12 is 11400 pM.
On the same count and under the same terms, the figure for B7 is 1810 pM.

The target in the next assay is T2, CCL21. Briefly: SPR.
In the case of B13, the dissociation constant (Kd) is 10 pM, the koff is 8e-05 s⁻¹ and the kon was 1.1e+07 M⁻¹ s⁻¹.

The next assay addresses T3, CCL25. Briefly: SPR.
B13 showed a Kd of 69600 pM, an off-rate (koff) of 0.00054 s⁻¹ and a kon of 8000 M⁻¹ s⁻¹.

Another assay addresses B13. Briefly: SPR. The source holds these as a separate data set.
B8 came in with a Kd of 410 pM, a koff of 0.0125 s⁻¹ and a kon of 3.05e+07 M⁻¹ s⁻¹.
Molecule B1 had a Kd of 340 pM, a koff of 0.00435 s⁻¹ and a kon of 1.29e+07 M⁻¹ s⁻¹.
Taken in the same sequence, the figures for B9 were 250 pM, 0.00176 s⁻¹ and 7.11e+06 M⁻¹ s⁻¹.
Taken in the same sequence, the figures for B10 were 30 pM, 0.00053 s⁻¹ and 1.96e+07 M⁻¹ s⁻¹.
Take B14: the Kd was determined as 260 pM, the koff is 0.00306 s⁻¹ and the kon was determined as 1.2e+07 M⁻¹ s⁻¹.
Molecule B2 returned a Kd of 90 pM, a koff of 0.00223 s⁻¹ and a kon of 2.6e+07 M⁻¹ s⁻¹.
On to B3, for which the Kd is 4430 pM, the koff was found to be 3e-05 s⁻¹ and the kon came out at 6000 M⁻¹ s⁻¹.
Taken in the same sequence, the figures for B4 were 2310 pM, 0.0936 s⁻¹ and 4.05e+07 M⁻¹ s⁻¹.
As to B15, the Kd was found to be 430 pM, the koff worked out at 0.0038 s⁻¹ and the kon came out at 8.9e+06 M⁻¹ s⁻¹.
In the case of B5, the Kd was 60 pM, the koff was 0.00089 s⁻¹ and the kon is 1.38e+07 M⁻¹ s⁻¹.
Consider B11, for which the Kd is 700 pM, the koff is 0.00988 s⁻¹ and the kon worked out at 1.41e+07 M⁻¹ s⁻¹.
On to B16, for which the Kd is 140 pM, the koff amounted to 0.00035 s⁻¹ and the kon stood at 2.57e+06 M⁻¹ s⁻¹.
Molecule B12 displayed a Kd of 880 pM, a koff of 0.00015 s⁻¹ and a kon of 170000 M⁻¹ s⁻¹.
Consider B6, for which binding was put at a Kd of 610 pM, the koff was found to be 0.0107 s⁻¹ and the kon was determined as 1.76e+07 M⁻¹ s⁻¹.
Taken in the same sequence, the figures for B17 were 140 pM, 0.00148 s⁻¹ and 1.04e+07 M⁻¹ s⁻¹.
For the molecule B7, the Kd turned out to be 200 pM, the koff was found to be 0.00326 s⁻¹ and the kon amounted to 1.66e+07 M⁻¹ s⁻¹.
